Source: patent US20080166749A1, “Fluorescent Protein Sensors of Post-Translational Modifications” (INVITROGEN CORPORATION, priority 1998, published 2008)
Where no end group is shown, it is not given here.

What was measured:
[1] = biological target: T1, protein kinase A catalytic subunit (Mus musculus, UniProt P05132); assay: Change in fluorescence after incubation with excess protein kinase A; assay type: biochemical; details: one hour at 30° C., 488 nm excitation, 511 nm emission; for % Change in fluorescence upon phosphorylation: more drastically altered N-terminal sites, excess PKA catalytic subunit; for % Change in fluorescence: excess protein kinase A catalytic subunit
Method: (§1) Numbers prior to the sequence indicate amino acid position in wild type GFP (SEQ ID NO:2) where phosphorylation motif starts. The relative rates of phosphorylation compare the rate of phosphorylation of the given phosphorylation motif with the endogenous protein kinase A phosphorylation motif in Aequorea GFP (HKFSV, SEQ ID NO:1) measured by incorporation of ^32P after incubation of the purified substrate and protein kinase A catalytic subunit in the presence of ^32P-labeled ATP using 3 micrograms of GFP, 5 micrograms protein kinase A catalytic subunit, for 10 minutes at 30° C. in standard phosphorylation buffer (20 mM MOPS, pH 6.5, 100 mM KCl, 100 micromolar ATP, 3 mM MgC2, 1 mM DTT and 100 microCi ^32P-labeled ATP. Reactions were terminated by blotting onto phosphocellulose paper and washing with 10% phosphoric acid. The percent change in fluorescence represents the increase in fluorescence (475 nm excitation, 510 nm emission) observed in each purified protein resulting from incubation with excess protein kinase A catalytic subunit for one hour at 30° C. using the same phosphorylation conditions as described above except that no ^32P labeled ATP was present and that after the reaction time was complete, samples were analyzed in a fluoromiter rather than blotted onto phosphocellulose paper.
(§2) Numbers prior to the sequence indicate amino acid position in the wild type GFP where the phosphorylation motif starts. The relative rates of phosphorylation compare the rate of phosphorylation of the given phosphorylation motif with the endogenous protein kinase A phosphorylation motif in Aequorea GFP (HKFSV) measured by incorporation of ^32P after incubation of the purified substrate and protein kinase A catalytic subunit in the presence of ^32P-labeled ATP using the standard protocols described above. The percentage change in fluorescence represents the change in fluorescence (488 nm excitation, 511 nm emission) observed in each purified protein as a result of incubation with excess protein kinase A catalytic subunit for one hour at 30° C. using phosphorylation conditions described above. […] To improve the effect of phosphorylation on fluorescence, amino acids around the phosphorylation site were mutated to create an optimal phosphorylation sequence even if it disordered the existing local tertiary structure. Such disruption was predicted and found to decrease the basal fluorescence of these constructs in their non-phosphorylated state (Table VI).
Numbers prior to the sequence indicate amino acid position in wild type GFP where the phosphorylation site starts. Negative numbers indicate extensions onto the wild-type N-terminus. The percent change in fluorescence represents the change in fluorescence (488 nm excitation, 511 nm emission) observed in each purified protein resulting from incubation with excess protein kinase A catalytic subunit for one hour at 30° C. using standard phosphorylation conditions described earlier.

[2] = biological target: T1, protein kinase A catalytic subunit; assay: Relative rate of phosphorylation by protein kinase A, ^32P incorporation; assay type: biochemical; details: relative to endogenous PKA motif HKFSV; sites inserted at the N-terminus of S65T GFP
Method: as §1, §2

[3] = Fluorescent properties of mutants of Aequorea green fluorescent protein (Table I); assay type: physicochemical
[4] = test system: activated recombinant MAP kinase; assay: Phosphorylation of GFP Erk sensors by MAP kinase, ^32P incorporation; assay type: biochemical; details: for ^32P-Incorporation (CPM): 10 μM substrate, 100 ng MAP kinase, 30 minutes at 30° C., mean ± standard deviation of triplicates
From the text: Experiments were terminated and samples processed as described previously in subsection D.4. Results presented in Table X represent means of triplicate determinations ±standard deviations of ^32P-incorporation in washed pellets as described earlier.

Erk-1 kinase = Erk-1 kinase (Homo sapiens, UniProt P27361); assay: Fluorescence change of Erk substrates after phosphorylation and acetate quench; assay type: biochemical; details: 2 μM GFP, 1 μg Erk-1 kinase, 1 hour at 30° C.; 3 hours in acetate quenching buffer pH 5.0
Method: These experiments were performed by incubating the GFP sample (2 μM) with Erk-1 kinase (1 μg) for 1 hour at 30° C. in assay buffer (20 mM MOPS, pH 7.2, 25 mM beta-glycerol phosphate, 5 mM EGTA, 1 mM DTT, 1 mM ATP, 20 mM MgCl2). Reactions were quenched by the addition of acetate quenching buffer (100 μL of 100 mM Acetate pH 5.0, 100 mM NaCl, 20 mM beta-Glycerol phosphate). Fluorescence changes were measured after 3 hours of incubation in acetate quenching buffer. Results represent the means of triplicate determinations.

Erk-1 kinase, sequence (P27361 whole entry): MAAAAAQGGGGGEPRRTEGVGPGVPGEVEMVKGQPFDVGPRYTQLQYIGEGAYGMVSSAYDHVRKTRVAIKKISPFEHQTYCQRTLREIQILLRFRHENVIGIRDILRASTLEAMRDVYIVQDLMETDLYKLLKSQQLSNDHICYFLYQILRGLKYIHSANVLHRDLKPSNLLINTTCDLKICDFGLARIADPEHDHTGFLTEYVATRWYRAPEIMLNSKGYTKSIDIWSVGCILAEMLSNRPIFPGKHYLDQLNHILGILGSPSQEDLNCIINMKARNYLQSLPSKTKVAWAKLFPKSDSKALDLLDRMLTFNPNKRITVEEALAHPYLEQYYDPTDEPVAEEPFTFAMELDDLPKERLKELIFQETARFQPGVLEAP

| Molecule | Relative rates of phosphorylation [2] | % Change in fluorescence [1] [%] | ^32P-Incorporation (CPM) [4] [CPM] | other results |
| --- | --- | --- | --- | --- |
| 1IMRRRRSI1: S65T GFP with N-terminal phosphorylation site MRRRRSII (not fully specified (C-terminus); printed as 1IMRRRRSI1) |  |  |  | % Change in fluorescence upon phosphorylation [1]: 70%; % Change in fluorescence upon phosphorylation ([1]; listed as 1MRRRRSII): about 70% |
| 1MRDSCLF: S65T GFP with N-terminal phosphorylation site MRDSCLF (not fully specified (C-terminus); printed as 1MRDSCLF) | 3.7 | 17 |  |  |
| 1MRKGSCLF: S65T GFP with N-terminal phosphorylation site MRKGSCLF (not fully specified (C-terminus); printed as 1MRKGSCLF) | 5.1 | 5.7 |  |  |
| 1MRKGSLLF: S65T GFP with N-terminal phosphorylation site MRKGSLLF (not fully specified (C-terminus); printed as 1MRKGSLLF) | 1.6 | 8.0 |  |  |
| 1MRRESLLF: S65T GFP with N-terminal phosphorylation site MRRESLLF (not fully specified (C-terminus); printed as 1MRRESLLF) | 3.0 | 6.0 |  |  |
| 1MSKRRDSL: GFP with N-terminal phosphorylation site MSKRRDSL; 7% of wild type fluorescence (not fully specified (C-terminus); printed as 1MSKRRDSL) | 5.5 | 5.1 |  |  |
| 1MSRRDSCF: S65T GFP with N-terminal phosphorylation site MSRRDSCF (not fully specified (C-terminus); printed as 1MSRRDSCF) | 2.1 | 25 |  |  |
| O=C(Nc1ccccc1-c1ccc(Cl)cc1)c1cccnc1Cl [Emerald] |  |  |  | Emission Max [3]: 508 nm; Excitation Max [3]: 487 nm |
| Erk-1: GFP mutant K8 with Erk kinase motif Met Val Glu Pro Leu Thr Pro Ser Phe (MVEPLTPSF; not fully specified; printed as Met Val Glu Pro Leu Thr Pro Ser Phe) |  |  | 1579 ± 282 |  |
| Erk-4: GFP mutant K8 with Erk kinase motif Met Thr Gly Pro Leu Ser Pro Gly Phe (MTGPLSPGF; not fully specified; printed as Met Thr Gly Pro Leu Ser Pro Gly Phe) |  |  | 1982 ± 260 |  |
| Erk-5: GFP mutant K8 with Erk kinase motif Met Thr Gly Pro Leu Ser Pro Gly Tyr (MTGPLSPGY; not fully specified; printed as Met Thr Gly Pro Leu Ser Pro Gly Tyr) |  |  | 6455 ± 558 |  |
| Erk-6: GFP mutant K8 with Erk kinase motif Met Thr Gly Pro Leu Ser Pro Gly Leu (MTGPLSPGL; not fully specified; printed as Met Thr Gly Pro Leu Ser Pro Gly Leu) |  |  | 22498 ± 381 | Fold Increase in Fluorescence after Phosphorylation (Erk-1 kinase): 1.20 fold |
| Erk-7: GFP mutant K8 with Erk kinase motif Met Thr Gly Pro Leu Ser Pro Gly Pro (MTGPLSPGP; not fully specified; printed as Met Thr Gly Pro Leu Ser Pro Gly Pro) |  |  | 25502 ± 2077 | Km ([4]; kinetic analysis): 15 µM; Fold Increase in Fluorescence after Phosphorylation (Erk-1 kinase): 1.05 fold |
| Wild type: wild-type Aequorea green fluorescent protein, SEQ ID NO:2 |  |  |  | Emission Max [3]: 508 nm; Excitation Max [3]: 395 nm; Extinction Coefficient [3]: 21,000 M − 1 cm − 1; Quantum Yield [3]: 0.77 |
| −1MRRRRSIII: S65T GFP with N-terminal phosphorylation site MRRRRSIII, N-terminus extended by one (not fully specified (C-terminus); printed as −1MRRRRSIII) |  |  |  | % Change in fluorescence upon phosphorylation [1]: 43%; % Change in fluorescence upon phosphorylation ([1]; listed as MRRRRSIII): about 70% |
| −2MRRRRSIIIF: S65T GFP with N-terminal phosphorylation site MRRRRSIIIF, N-terminus extended by two (not fully specified (C-terminus); printed as −2MRRRRSIIIF) |  |  |  | % Change in fluorescence upon phosphorylation [1]: 15% |
